Assay results: doi:10.1101/2025.01.06.631460 (bioRxiv, 2025)

Target: the molecule itself
Test: single molecule photobleaching

B1: CNGC14-GFP (natural protein, Arabidopsis thaliana, UniProt Q9SJA4 1-726, looked up)
chain: MEFKRDNTVRFYGDEKQTIEVGEKRVPLFKSTTAPFMKQEVLPKKSKTRLKIPRFGRFKVFPENFEIERDKILDPGGDAVLQWNRVFLFWCLVALYVDPLFFFLSSVKRIGRSSCMTTDLKLGIVITFFRTLADLFYVLHIVIKFRTAYVSRTSRVFGRGELVKDPKLIARRYLRSDFIVDLIACLPLPQIVSWFILPSIRSSHSDHTTNALVLIVLVQYIPRLYLIFPLSAEIIKATGVVTTTAWAGAAYNLLQYMLASHILGSAWYLLSIERQATCWKAECHKESVPLQCVTDFFDCGTLHRDDRNNWQNTTVVFSNCDPSNNIQFTFGIFADALTKNVVSSPFLEKYLYCLWFGLQNLSSYGQNLSTSTSVLETMFAILVAIFGLVLFALLIGNMQTYLQSITVRLEEWRLKRRDTEEWMGHRLLPQNLRERVRRFVQYKWLATRGVDEETILHSLPADLRRDIQRHLCLDLVRRVPLFAQMDDQLLDAICERLASSLSTQGNYIVREGDPVTEMLFIIRGKLESSTTNGGRTGFFNSITLRPGDFCGEELLAWALLPKSTVNLPSSTRTVRALEEVEAFALQAGDLKFVANQFRRLHSKKLQHTFRYYSHQWRTWAACFVQVAWRRYKRKKLAKSLSLAESFSSYDEEEAVAVAATEEMSHEGEAQSGAKARHHTSNVKPHFAATILASRFAKNTRRTAHKLKDVEIPMLPKPDEPDFSVDD
For B1, the “stoichiometry N” value was 4.
